This data set relates to Saccharomyces cerevisiae. As to the kind of experiment: protein stability index of tFT-peptide fusion (C-terminal peptide) (PSI (0-1 scale)); higher = more stable (slower turnover). Particulars: temperature: 30 C. On the procedure: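 MPS profiling in S. cerevisiae of the yeast C-terminome library: the last 12 aa of each annotated ORF are fused to the C-terminus of a sfGFP-mCherry timer, after a GGGS linker. Cells are FACS-sorted into 8 mCherry/sfGFP bins and deep-sequenced. PSI runs from 0 (unstable) to 1 (stable); wild type and das1Δ backgrounds, two technical replicates each.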

[1] abbreviates: genetic background: das1 deletion.

± gives the standard deviation of the averaged measurements.

For the sequence FTLVDYDKKFHK [ADH7 C-terminal 12 aa], the protein stability index runs as follows: under setting [1], 0.702 ± 0.043; (genetic background: wild type) 0.78 ± 0.087.
Taken in the same sequence, the figures for FTNQKLAKLEVR [YMR141C C-terminal 12 aa] were 0.57877 ± 0.00025 and 0.591 ± 0.0041.
The corresponding values for FVLIVLGLLTYL [GET2 C-terminal 12 aa] are 0.364 ± 0.0094 and 0.38 ± 0.019.
The corresponding values for FVSHSRFFNRGT [VPS53 C-terminal 12 aa] are 0.684 ± 0.03 and 0.6958 ± 0.0033.
For the sequence FYIDKFQVREVK [SUC2 C-terminal 12 aa], the protein stability index runs as follows: under setting [1], 0.7059 ± 0.0061; (genetic background: wild type) 0.683 ± 0.038.
The corresponding values for “GAAIAAGVAFLF [YCL048W-A C-terminal 12 aa]” are 0.716 ± 0.011 and 0.538 ± 0.021.
The corresponding values for GAGIMALIGKWA [ZRT1 C-terminal 12 aa] are 0.687 ± 0.017 and 0.661 ± 0.022.
Taken in the same sequence, the figures for GALLAGAAALLL [CCW12 C-terminal 12 aa] were 0.7007 ± 0.0036 and 0.698 ± 0.019.
As to GAQIISLDEDVF [GIP1 C-terminal 12 aa], the protein stability index is, setting by setting: under setting [1], 0.715 ± 0.045; (genetic background: wild type) 0.716 ± 0.037.
Taken in the same sequence, the figures for GEGESIDDKLTD [STB1 C-terminal 12 aa] were 0.6976 ± 0.00096 and 0.733 ± 0.054.
For GESISMLFEHGW [PRS5 C-terminal 12 aa], the protein stability index is, setting by setting: under setting [1], 0.719 ± 0.012; (genetic background: wild type) 0.7458 ± 0.0051.
The corresponding values for GESVDKVTKNEQ [YPR114W C-terminal 12 aa] are 0.691 ± 0.011 and 0.662 ± 0.014.
Regarding GETDSKIKYKYR [SND2 C-terminal 12 aa], the protein stability index reads like this: under setting [1], 0.712 ± 0.06; (genetic background: wild type) 0.573 ± 0.026.
The corresponding values for GFASLIKDFKKK [NET1 C-terminal 12 aa] are 0.672 ± 0.018 and 0.685 ± 0.043.
Taken in the same sequence, the figures for GGGYLTSLKLFI [YOR041C C-terminal 12 aa] were 0.68787 ± 0.00068 and 0.681 ± 0.031.
The corresponding values for GGNLPQGYFYTQ [GTS1 C-terminal 12 aa] are 0.707 ± 0.0075 and 0.69615 ± 0.00011.
Take GIRRIVHEPLGI [MTE1 C-terminal 12 aa]: the protein stability index came to 0.733 ± 0.016 under setting [1] and 0.729 ± 0.045 (genetic background: wild type).
GIVRHLIDSVKL [ACS1 C-terminal 12 aa]: the protein stability index runs as follows: under setting [1], 0.695 ± 0.012; (genetic background: wild type) 0.6884 ± 0.0041.
Taken in the same sequence, the figures for GKGAIDGFFKRK [RNH202 C-terminal 12 aa] were 0.694 ± 0.03 and 0.6575 ± 0.004.
Taken in the same sequence, the figures for GLEFHDVEDRIA [PEX18 C-terminal 12 aa] were 0.7047 ± 0.0036 and 0.702 ± 0.013.
The corresponding values for GLKGLFPTSYCK [BZZ1 C-terminal 12 aa] are 0.702 ± 0.039 and 0.732 ± 0.02.
In turn, GLQKKNIKIHGF [SUI1 C-terminal 12 aa] gave a protein stability index under setting [1] of 0.699 ± 0.024 and a protein stability index (genetic background: wild type) of 0.684 ± 0.074.
With GQGTTLGGPFFP [ALB1 C-terminal 12 aa], the protein stability index worked out at 0.724 ± 0.019 under setting [1] and 0.7215 ± 0.0052 (genetic background: wild type).
For GRENGDVNIWAV [MDV1 C-terminal 12 aa], the protein stability index by setting is: under setting [1], 0.702 ± 0.013; (genetic background: wild type) 0.715 ± 0.0099.
Taken in the same sequence, the figures for GRYAQIHEKHIE [ASN1 C-terminal 12 aa] were 0.7022 ± 0.0044 and 0.691 ± 0.089.
Taken in the same sequence, the figures for GSAAVAGALLLL [YNL190W C-terminal 12 aa] were 0.689 ± 0.02 and 0.664 ± 0.023.
The corresponding values for GSSLITEGVYVI [NSE1 C-terminal 12 aa] are 0.686 ± 0.021 and 0.683 ± 0.028.
Turning to GSVPANWNWSSF [PIB2 C-terminal 12 aa], the protein stability index is, setting by setting: under setting [1], 0.739 ± 0.03; (genetic background: wild type) 0.699 ± 0.048.
The corresponding values for GTVCYGMIEIFF [VTC5 C-terminal 12 aa] are 0.596 ± 0.009 and 0.616 ± 0.013.
Taken in the same sequence, the figures for GVITPVYFPLRW [YDR215C C-terminal 12 aa] were 0.725 ± 0.008 and 0.715 ± 0.017.
Taken in the same sequence, the figures for GYACPTHYLREM [MXR1 C-terminal 12 aa] were 0.6899 ± 0.0052 and 0.7169 ± 0.0063.
HEKRTEEVARYA [YGR026W C-terminal 12 aa]: the protein stability index is 0.7173 ± 0.0035 under setting [1] and 0.6604 ± 0.0066 (genetic background: wild type).
Taken in the same sequence, the figures for HEVDTEKINIFQ [YML003W C-terminal 12 aa] were 0.729 ± 0.018 and 0.697 ± 0.026.
The corresponding values for HGGNVSSSTYQA [GND1 C-terminal 12 aa] are 0.685 ± 0.013 and 0.696 ± 0.029.
Taken in the same sequence, the figures for HGNDFLQHVNRK [RSM22 C-terminal 12 aa] were 0.716 ± 0.03 and 0.7065 ± 0.0016.
As to “HIFYFVLSYSEW [YIL030W-A C-terminal 12 aa]”, the protein stability index reads like this: under setting [1], 0.172 ± 0.022; (genetic background: wild type) 0.192 ± 0.0083.
HIREDYLRQFGN [KTR5 C-terminal 12 aa] showed a protein stability index under setting [1] of 0.691 ± 0.027 and a protein stability index (genetic background: wild type) of 0.616 ± 0.022.
Taken in the same sequence, the figures for HKSGKLLLPVYI [ECO1 C-terminal 12 aa] were 0.636 ± 0.0084 and 0.619 ± 0.03.
Take HLQRCLSRGARR [SGF11 C-terminal 12 aa]: the protein stability index runs as follows: under setting [1], 0.698 ± 0.016; (genetic background: wild type) 0.759 ± 0.039.
Taken in the same sequence, the figures for HNILDRCLKRLS [RKM3 C-terminal 12 aa] were 0.699 ± 0.03 and 0.716 ± 0.013.
HNPSLWSCIFGK [SWS2 C-terminal 12 aa]: the protein stability index by setting is: under setting [1], 0.716 ± 0.02; (genetic background: wild type) 0.714 ± 0.029.
The corresponding values for HNVCGRAFSLPL [HSL7 C-terminal 12 aa] are 0.7123 ± 0.0037 and 0.677 ± 0.035.
The corresponding values for HQKARSSYCCIQ [XDJ1 C-terminal 12 aa] are 0.759 ± 0.02 and 0.706 ± 0.0085.
Taken in the same sequence, the figures for HRIASKIRSKLR [GIP4 C-terminal 12 aa] were 0.686 ± 0.0021 and 0.714 ± 0.03.
HTSVKALQRMTW [CTH1 C-terminal 12 aa] returned a protein stability index under setting [1] of 0.7271 ± 0.0051 and a protein stability index (genetic background: wild type) of 0.6829 ± 0.0024.
Taken in the same sequence, the figures for “HWLQLKPGQPMY [MF(ALPHA)1 C-terminal 12 aa]” were 0.7177 ± 0.0044 and 0.6822 ± 0.0032.
The corresponding values for “HYSPFYQLPLIF [YGR240C-A C-terminal 12 aa]” are 0.683 ± 0.022 and 0.575 ± 0.0067.
The corresponding values for IAPEVTYRGFIE [RIM9 C-terminal 12 aa] are 0.689 ± 0.027 and 0.685 ± 0.03.
As for IDEIYEDKWLKI [PSK2 C-terminal 12 aa], the protein stability index under setting [1] was 0.727 ± 0.027 and the protein stability index (genetic background: wild type) came to 0.74 ± 0.047.
Taken in the same sequence, the figures for IDLVLVVNVLSL [YCR064C C-terminal 12 aa] were 0.425 ± 0.015 and 0.428 ± 0.0062.
For IDTWEIKFNELF [YLR287C C-terminal 12 aa], the protein stability index is 0.732 ± 0.042 under setting [1] and 0.6954 ± 0.0012 (genetic background: wild type).
Taken in the same sequence, the figures for IELWETFYQTNL [VPS5 C-terminal 12 aa] were 0.745 ± 0.011 and 0.7177 ± 0.0056.
Turning to IESTLSNKLSIN [YCR013C C-terminal 12 aa], the protein stability index reads like this: under setting [1], 0.696 ± 0.024; (genetic background: wild type) 0.674 ± 0.014.
Taken in the same sequence, the figures for IFTSGSKSMKDL [ALG6 C-terminal 12 aa] were 0.73 ± 0.01 and 0.671 ± 0.0092.
Taken in the same sequence, the figures for IFVAILLRYAKI [PCA1 C-terminal 12 aa] were 0.243 ± 0.013 and 0.228 ± 0.006.
The corresponding values for IFVGETIFFFLF [YDR053W C-terminal 12 aa] are 0.625 ± 0.016 and 0.536 ± 0.018.
As to “IFYLRFPSYIRG [YJR151W-A C-terminal 12 aa]”, the protein stability index reads like this: under setting [1], 0.614 ± 0.017; (genetic background: wild type) 0.615 ± 0.0023.
The corresponding values for IGRENENENEDD [POP5 C-terminal 12 aa] are 0.688 ± 0.037 and 0.704 ± 0.058.
Taken in the same sequence, the figures for IHTPTIPKRSLT [MCX1 C-terminal 12 aa] were 0.7149 ± 0.0019 and 0.767 ± 0.052.
Consider IIGALNLYDGLI [FRQ1 C-terminal 12 aa], for which the protein stability index was 0.737 ± 0.017 under setting [1] and 0.763 ± 0.12 (genetic background: wild type).
The corresponding values for IIGIYYVLKWLR [BOS1 C-terminal 12 aa] are 0.3507 ± 0.0021 and 0.392 ± 0.0089.
Consider “IKLARRLRGERS [YBR010W; YNL031C C-terminal 12 aa]”, for which the protein stability index is 0.6941 ± 0.0047 under setting [1] and 0.68 ± 0.012 (genetic background: wild type).
Taken in the same sequence, the figures for IKLIDFNETSLT [MCM22 C-terminal 12 aa] were 0.68 ± 0.008 and 0.675 ± 0.0072.
Taken in the same sequence, the figures for IKRLDANTDFNI [MFB1 C-terminal 12 aa] were 0.678 ± 0.019 and 0.668 ± 0.024.
Taken in the same sequence, the figures for ILDDTRQALGNT [PCL8 C-terminal 12 aa] were 0.703 ± 0.034 and 0.737 ± 0.013.
Turning to ILKELSNLETLY [RPB4 C-terminal 12 aa], the protein stability index under setting [1] stood at 0.7182 ± 0.007 and the protein stability index (genetic background: wild type) is 0.737 ± 0.051.
The corresponding values for “ILNCVGSAKTSG [YBR298C-A C-terminal 12 aa]” are 0.68417 ± 0.00062 and 0.666 ± 0.019.

Values taken from the supplement of paper PMC10724198.
